Experimental findings from patent publication US20210324099A1 (Chugai, published 2021) are described below.

Experiment [1] addresses T1, hFcgRIIaH (human, UniProt P12318 34-217).
T1 construct: extracellular domain; also called human FcγRIIa type H (H131)
T1 sequence (looked up): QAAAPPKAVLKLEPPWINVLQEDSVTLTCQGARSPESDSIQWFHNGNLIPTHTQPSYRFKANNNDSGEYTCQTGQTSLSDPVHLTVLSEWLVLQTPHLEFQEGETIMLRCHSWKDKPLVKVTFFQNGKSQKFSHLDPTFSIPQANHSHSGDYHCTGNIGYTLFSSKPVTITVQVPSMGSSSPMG
The experiment can be described thus: SPR 25C.

Experiment [2] addresses T2, hFcgRIIaR (human, UniProt P12318 34-217).
T2 construct: extracellular domain; also called human FcγRIIa type R (R131)
T2 sequence (looked up): T1 sequence (looked up) with H134R
Kind of experiment: SPR 25C.

In experiment [3] the target is T3, hFcgRIIIaF (human, UniProt P08637 17-208).
T3 construct: extracellular domain; also called human FcγRIIIa allotype F158
T3 sequence (P08637 17-208): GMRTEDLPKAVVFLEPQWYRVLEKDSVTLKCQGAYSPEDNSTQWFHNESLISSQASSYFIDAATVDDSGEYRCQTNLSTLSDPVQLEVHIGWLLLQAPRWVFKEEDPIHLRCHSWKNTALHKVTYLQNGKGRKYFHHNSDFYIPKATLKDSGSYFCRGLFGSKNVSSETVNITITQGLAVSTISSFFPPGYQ
Kind of experiment: SPR 25C.

The target of experiment [4] is T4, hFcgRIa (human, UniProt P12314 16-292).
T4 construct: extracellular domain; also called human FcγRIa; FcγRI
T4 sequence (P12314 16-292): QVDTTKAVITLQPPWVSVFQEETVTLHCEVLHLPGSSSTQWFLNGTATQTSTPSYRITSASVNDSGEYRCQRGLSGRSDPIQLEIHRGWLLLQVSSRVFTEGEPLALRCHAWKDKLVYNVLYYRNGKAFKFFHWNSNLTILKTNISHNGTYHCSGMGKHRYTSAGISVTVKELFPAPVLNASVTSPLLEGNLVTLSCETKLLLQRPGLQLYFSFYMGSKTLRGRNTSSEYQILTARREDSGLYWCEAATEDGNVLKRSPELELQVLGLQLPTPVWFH
The experiment can be described thus: SPR 25C.

Experiment [5] concerns the target T5, hFcgRIIIaV (human, UniProt P08637 17-208).
T5 construct: extracellular domain; also called human FcγRIIIa allotype V158
The experiment can be described thus: SPR 25C.

Experiment [6] concerns the target T6, hFcgRIIb (human, UniProt P31994 43-217).
T6 construct: extracellular domain; also called human FcγRIIb
T6 sequence (looked up): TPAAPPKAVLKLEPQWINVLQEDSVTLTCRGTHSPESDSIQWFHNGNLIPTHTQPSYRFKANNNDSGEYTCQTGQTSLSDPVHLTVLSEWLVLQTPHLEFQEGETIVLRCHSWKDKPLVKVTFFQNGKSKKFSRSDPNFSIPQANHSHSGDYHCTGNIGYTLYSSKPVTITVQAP
The experiment can be described thus: SPR 25C.

The target of experiment [7] is T1, hFcgRIIaH. Kind of experiment: SPR 25C; relative to A375-G1T3/B167-Lamlib.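 Note: SPR with antibody captured on an anti-human Fab-lambda chip, human FcγR analyte at 8 nM for FcγRIa or 1000 nM for the others, pH 7.4, FcγR RU per captured antibody unit.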
Protocol: (§1) Biacore T200 (GE Healthcare) was used to evaluate the binding activity to the respective human Fcγ receptor (hereafter referred to as FcγR). Measurement was performed at 25° C. using 50 mM phosphate, 150 mM NaCl, 0.05 w/v %-P20, pH 7.4 as buffer. About 1000 RU of antibody was captured using a sensor chip immobilized with CaptureSelect™ Human Fab-lambda Kinetics Biotin Conjugate (Thermo Fisher Scientific) as a molecule for ligand capturing. Human FcγR was diluted to 8 nM for FcγRIa and 1000 nM for other FcγR in the measurement buffer, and it was interacted to the captured antibody. The binding activity of each antibody to FcγR was assessed by calculating the binding amount of FcγR (RU) per unit amount of antibody using Biacore T200 Evaluation Software 2.0.
Experiment [8] has as its target T2, hFcgRIIaR. Kind of experiment: SPR 25C; relative to A375-G1T3/B167-Lamlib.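 Note: SPR with antibody captured on an anti-human Fab-lambda chip, human FcγR analyte at 8 nM for FcγRIa or 1000 nM for the others, pH 7.4, FcγR RU per captured antibody unit.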
Protocol: as §1
In experiment [9] the target is T3, hFcgRIIIaF. Kind of experiment: SPR 25C; relative to A375-G1T3/B167-Lamlib.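 Note: SPR with antibody captured on an anti-human Fab-lambda chip, human FcγR analyte at 8 nM for FcγRIa or 1000 nM for the others, pH 7.4, FcγR RU per captured antibody unit.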
Protocol: as §1
Experiment [10] addresses T4, hFcgRIa. Kind of experiment: SPR 25C; relative to A375-G1T3/B167-Lamlib.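 Note: SPR with antibody captured on an anti-human Fab-lambda chip, human FcγR analyte at 8 nM for FcγRIa or 1000 nM for the others, pH 7.4, FcγR RU per captured antibody unit.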
Protocol: as §1
Experiment [11] concerns the target T5, hFcgRIIIaV. Kind of experiment: SPR 25C; relative to A375-G1T3/B167-Lamlib.
Protocol: as §1
Experiment [12] deals with T6, hFcgRIIb. Kind of experiment: SPR 25C; relative to A375-G1T3/B167-Lamlib.
Protocol: as §1
A further experiment concerns the target human FcRn (human, UniProt P55899 24-290; P61769 21-119, limits assumed). The experiment can be described thus: SPR 25C pH 6.0, steady state.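 Note: antibody captured on chip via anti-human Fab-lambda ligand, human FcRn injected as analyte in 50 mM phosphate buffer with 150 mM NaCl and P20.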

Positions count from the first letter of the chain named.
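Throughout, for binding per 1RU of antibody: biacore SPR with antibody captured on an anti-human Fab lambda chip, human FcγR injected at 1000 nM (FcγRIa at 8 nM) in pH 7.4 phosphate buffer.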

Sequence of human FcRn (P55899 24-290 limits assumed, chain 1 of 2): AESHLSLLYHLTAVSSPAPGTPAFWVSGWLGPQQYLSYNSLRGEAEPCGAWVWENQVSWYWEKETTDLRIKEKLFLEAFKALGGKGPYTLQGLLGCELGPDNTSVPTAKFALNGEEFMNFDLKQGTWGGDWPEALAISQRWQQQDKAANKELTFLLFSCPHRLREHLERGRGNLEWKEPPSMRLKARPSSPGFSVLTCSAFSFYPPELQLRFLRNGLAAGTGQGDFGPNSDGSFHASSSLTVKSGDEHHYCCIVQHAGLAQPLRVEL
Sequence of human FcRn (P61769 21-119 limits assumed, chain 2 of 2): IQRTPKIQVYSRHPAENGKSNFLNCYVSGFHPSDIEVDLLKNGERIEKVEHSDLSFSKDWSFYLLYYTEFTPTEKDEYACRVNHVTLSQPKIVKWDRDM
T5 sequence (P08637 17-208 F176V): as the sequence (P08637 17-208) above, with F160V counted along it

B1: A375-G1T3/B167-Lamlib (antibody, human IgG1, lambda)
heavy: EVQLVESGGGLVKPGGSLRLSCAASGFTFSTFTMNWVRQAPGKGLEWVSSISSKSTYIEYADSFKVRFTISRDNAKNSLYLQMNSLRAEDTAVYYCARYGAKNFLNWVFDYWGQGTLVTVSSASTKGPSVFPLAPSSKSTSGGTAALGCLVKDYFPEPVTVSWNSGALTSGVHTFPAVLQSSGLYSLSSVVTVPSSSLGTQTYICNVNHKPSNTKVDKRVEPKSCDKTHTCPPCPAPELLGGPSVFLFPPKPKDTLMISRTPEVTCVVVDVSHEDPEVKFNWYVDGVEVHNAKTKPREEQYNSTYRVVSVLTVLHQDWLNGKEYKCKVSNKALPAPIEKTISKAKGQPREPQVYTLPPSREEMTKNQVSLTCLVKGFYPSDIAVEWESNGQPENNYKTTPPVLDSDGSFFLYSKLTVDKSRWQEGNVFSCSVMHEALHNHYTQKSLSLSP
light: QSALTQPPSASGSPGQTVTISCTGTRYDVGYYEYVSWYQQHPGKAPKLMIYETSKRLSGVPDRFSGSKSGNTASLTVSGLQAEDEADYYCSSYRYEHQVSFGGGTKLTVLGQPKAAPSVTLFPPSSEELQANKATLVCLISDFYPGAVTVAWKADSSPVKAGVETTTPSKQSNNKYAASSYLSLTPEQWKSHRSYSCQVTHEGSTVEKTVAPTECS
notes: copies: 2 + 2
As for B1, the “binding per 1RU of antibody” value stood at 0.0567 RU in the experiment with hFcgRIIaH [1]; 0.0463 RU with hFcgRIIaR [2]; 0.0213 RU with hFcgRIIIaF [3]; 0.0813 RU in the experiment with hFcgRIa [4]; 0.07 RU in the experiment with hFcgRIIIaV [5]; 0.011 RU in the experiment with hFcgRIIb [6]. Also, the relative binding amount in the experiment with hFcgRIIaH [7], with hFcgRIIaR [8], with hFcgRIIIaF [9], with hFcgRIa [10], with hFcgRIIIaV [11] and in the experiment with hFcgRIIb [12] was 1 each time. Further, the Kd – broadly, a measure of binding affinity in units of concentration – in the experiment with human FcRn worked out at 1270 nM.

B2: A375-MY518a/B167-Lamlib (antibody, human IgG1, lambda)
heavy: EVQLVESGGGLVKPGGSLRLSCAASGFTFSTFTMNWVRQAPGKGLEWVSSISSKSTYIEYADSFKVRFTISRDNAKNSLYLQMNSLRAEDTAVYYCARYGAKNFLNWVFDYWGQGTLVTVSSASTKGPSVFPLAPSSKSTSGGTAALGCLVKDYFPEPVTVSWNSGALTSGVHTFPAVLQSSGLYSLSSVVTVPSSSLGTQTYICNVNHKPSNTKVDKRVEPKSCDKTHTCPPCPAPELWNGPSVFLFPPKPKDTLMISRTPEVTCVVVDVSDEDPEVKFNWYVDGVEVHNAKTKPREELYNSTYRVVSVLTVLHQDWLNGKEYKCKVSNTALPKPIEKTISKAKGQPREPQVYTLPPSREEMTKNQVSLTCLVKGFYPSDIAVEWESNGQPENNYKTTPPVLDSDGSFFLYSKLTVDKSRWQQGNVFSCSVMHEALHNHYTQKSLSLSP
light: B1 light
notes: copies: 2 + 2
With B2, the “binding per 1RU of antibody” value in the experiment with hFcgRIIaH [1] worked out at 0.0479 RU; with hFcgRIIaR [2], 0.047 RU; with hFcgRIIIaF [3], 0.0006 RU; with hFcgRIa [4] it was 0.0033 RU; with hFcgRIIIaV [5] it was 0.0009 RU; with hFcgRIIb [6], 0.0489 RU. For the same molecule, the relative binding amount with hFcgRIIaH [7] was determined as 0.84; in the experiment with hFcgRIIaR [8] it was 1.01; in the experiment with hFcgRIIIaF [9] it was 0.03; with hFcgRIa [10], 0.04; with hFcgRIIIaV [11] it was 0.01; with hFcgRIIb [12], 4.46. This molecule returned a Kd with human FcRn of 1320 nM.

B3: A375-MY518/B167-Lamlib (antibody, human IgG1, lambda)
heavy: B2 heavy with R219K
light: B1 light
notes: copies: 2 + 2
B3: the “binding per 1RU of antibody” value came to 0.0466 RU with hFcgRIIaH [1]; 0.046 RU with hFcgRIIaR [2]; 0.0009 RU in the experiment with hFcgRIIIaF [3]; 0.002 RU in the experiment with hFcgRIa [4]; 0.0015 RU in the experiment with hFcgRIIIaV [5]; 0.0482 RU with hFcgRIIb [6]. The relative binding amount in the experiment with hFcgRIIaH [7] was 0.82; in the experiment with hFcgRIIaR [8] it was 0.99; with hFcgRIIIaF [9], 0.04; with hFcgRIa [10], 0.02; with hFcgRIIIaV [11], 0.02; with hFcgRIIb [12], 4.4. The molecule further had a Kd in the experiment with human FcRn of 1270 nM.

B4: A375-TT11/B167-Lamlib (antibody, human IgG1, lambda)
heavy: B2 heavy with R219K, L239Y, W240L, N241G, P243D, T255V, D273H, L300Q, T312P, T331K
light: B1 light
notes: copies: 2 + 2
In the case of B4, the “binding per 1RU of antibody” value in the experiment with hFcgRIIaH [1] was 0.002 RU; with hFcgRIIIaF [3], -0.0009 RU; in the experiment with hFcgRIIIaV [5], -0.001 RU; with hFcgRIIb [6], 0.0477 RU. Also, the relative binding amount with hFcgRIIaH [7] was 0.03; with hFcgRIIIaF [9] it was -0.04; with hFcgRIIIaV [11], -0.01; with hFcgRIIb [12], 4.35. In the experiment with human FcRn, this molecule returned a Kd of 1560 nM.

B5: A375-P253/B167-Lamlib (antibody, human IgG1, lambda)
heavy: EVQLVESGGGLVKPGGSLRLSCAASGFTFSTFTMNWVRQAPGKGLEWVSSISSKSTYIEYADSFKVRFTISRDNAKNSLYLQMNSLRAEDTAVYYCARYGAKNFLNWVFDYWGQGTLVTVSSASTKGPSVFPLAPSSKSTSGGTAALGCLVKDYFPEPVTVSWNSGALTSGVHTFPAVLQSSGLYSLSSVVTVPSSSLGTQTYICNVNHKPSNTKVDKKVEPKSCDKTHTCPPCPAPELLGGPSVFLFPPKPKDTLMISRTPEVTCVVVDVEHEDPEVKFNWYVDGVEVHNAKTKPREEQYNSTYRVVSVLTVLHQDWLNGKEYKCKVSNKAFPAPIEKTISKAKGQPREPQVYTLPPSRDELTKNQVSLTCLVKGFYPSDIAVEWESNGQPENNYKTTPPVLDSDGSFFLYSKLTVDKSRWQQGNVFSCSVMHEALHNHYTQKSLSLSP
light: B1 light
notes: copies: 2 + 2
Turning to B5, the “binding per 1RU of antibody” value was 0.0497 RU with hFcgRIIaH [1]; 0.168 RU in the experiment with hFcgRIIaR [2]; 0.0056 RU with hFcgRIIIaF [3]; 0.0937 RU with hFcgRIa [4]; 0.0019 RU with hFcgRIIIaV [5]; 0.156 RU in the experiment with hFcgRIIb [6]. Moreover, the relative binding amount with hFcgRIIaH [7] worked out at 0.88; with hFcgRIIaR [8] it was 3.62; with hFcgRIIIaF [9] it was 0.26; with hFcgRIa [10], 1.15; in the experiment with hFcgRIIIaV [11], 0.03; with hFcgRIIb [12] it was 14.3. For the same molecule, binding in the experiment with human FcRn was put at a Kd of 1420 nM.

B6: A375-MY201aPh/B167-Lamlib (antibody, human IgG1, lambda)
heavy: B2 heavy with L300Q, T331K
light: B1 light
notes: copies: 2 + 2
Consider B6, for which the “binding per 1RU of antibody” value is 0.0328 RU with hFcgRIIaH [1]; 0.0335 RU with hFcgRIIaR [2]; 0.0007 RU in the experiment with hFcgRIIIaF [3]; 0.004 RU in the experiment with hFcgRIa [4]; 0.0011 RU in the experiment with hFcgRIIIaV [5]; 0.0313 RU with hFcgRIIb [6]. The relative binding amount with hFcgRIIaH [7] amounted to 0.58; with hFcgRIIaR [8] it was 0.72; with hFcgRIIIaF [9], 0.03; with hFcgRIa [10] it was 0.05; with hFcgRIIIaV [11] it was 0.02; with hFcgRIIb [12], 2.85. This molecule returned a Kd in the experiment with human FcRn of 1180 nM.

B7: A375-MY201a/B167-Lamlib (antibody, human IgG1, lambda)
heavy: B2 heavy with W240L, L300Q, T331K
light: B1 light
notes: copies: 2 + 2
As for B7, the “binding per 1RU of antibody” value with hFcgRIIaH [1] was 0.0534 RU; with hFcgRIIaR [2] it was 0.0338 RU; with hFcgRIIIaF [3], 0.0007 RU; with hFcgRIa [4], 0.0396 RU; with hFcgRIIIaV [5], 0.0024 RU; with hFcgRIIb [6] it was 0.0401 RU. The relative binding amount with hFcgRIIaH [7] is 0.94; with hFcgRIIaR [8] it was 0.73; in the experiment with hFcgRIIIaF [9] it was 0.04; with hFcgRIa [10], 0.49; with hFcgRIIIaV [11] it was 0.03; in the experiment with hFcgRIIb [12], 3.66. In the experiment with human FcRn, this molecule came in with a Kd of 1190 nM.
